Measurements: patent US20250043002A1 (Regeneron, published 2025)

Assays:
[1] = target: T1, human CD28 on cells (endogenous on Jurkat/NFkB-Luc cells; human primary CD4+ T cells) (human, UniProt P10747 19-220); experiment: cell-based or functional assay
[2] = target: T1, human CD28 on cells (endogenous on …); experiment: cell-based or functional assay; remark: listed apart in the source
[3] = target: T1, human CD28 on cells (endogenous on …); experiment: flow cytometry, Jurkat/NFkB-Luc cells (endogenous CD28); EC50 NC
[4] = target: human CD28 expressed with a C-terminal murine Fc tag (hCD28.mFc) (human); experiment: SPR Biacore 25 C, hCD28.mFc captured by anti-mFc, antibody injected
[5] = target: human PD-L1 expressed with a C-terminal myc-myc-hexahistidine tag (hPD-L1.mmH) (human); experiment: SPR Biacore 25 C, antibody captured by anti-hFc, hPD-L1.mmH injected
Sequence of human PD-L1 expressed with a C-terminal myc-myc-hexahistidine tag (hPD-L1.mmH) (human) (chain, as listed by the source limits assumed): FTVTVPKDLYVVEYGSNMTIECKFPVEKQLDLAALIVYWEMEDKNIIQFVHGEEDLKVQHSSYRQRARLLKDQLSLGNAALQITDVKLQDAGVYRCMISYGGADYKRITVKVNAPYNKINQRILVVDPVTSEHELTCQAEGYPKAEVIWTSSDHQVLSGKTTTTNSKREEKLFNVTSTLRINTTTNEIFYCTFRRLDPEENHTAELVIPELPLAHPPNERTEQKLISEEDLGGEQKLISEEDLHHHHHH

[6] = target: T2, human PD-L1 expressed on cells (HEK293/hCD20/hPSMA/hPD-L1; WSU-DLCL2/hPD-L1) (human, UniProt Q9NZQ7 19-290); experiment: flow cytometry, HEK293/hCD20/hPSMA/hPD-L1 cells
T2 construct: whole, on cells; also called human programmed death ligand-1
T2 sequence (Q9NZQ7 19-290): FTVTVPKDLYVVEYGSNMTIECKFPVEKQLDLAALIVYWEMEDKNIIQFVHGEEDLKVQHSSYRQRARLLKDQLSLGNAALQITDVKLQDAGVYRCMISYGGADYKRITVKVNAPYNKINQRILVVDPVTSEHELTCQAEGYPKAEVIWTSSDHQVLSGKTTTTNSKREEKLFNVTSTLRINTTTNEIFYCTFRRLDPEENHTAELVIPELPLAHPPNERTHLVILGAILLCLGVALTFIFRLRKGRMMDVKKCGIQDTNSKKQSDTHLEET

[7] = target: T3, hPD-L1-mFc: hPD-L1 extracellular domain (amino acids F19-T239) expressed with the Fc portion of mouse IgG2a … (human; mouse, UniProt Q9NZQ7 19-239); experiment: blocking ELISA, 0.7 nM hPD-L1-mFc on plate-coated hPD1-hFc
T3 construct: range 19-239; not shown: Fc portion of mouse IgG2a, amino acids E98-K330
T3 sequence (Q9NZQ7 19-239 limits assumed): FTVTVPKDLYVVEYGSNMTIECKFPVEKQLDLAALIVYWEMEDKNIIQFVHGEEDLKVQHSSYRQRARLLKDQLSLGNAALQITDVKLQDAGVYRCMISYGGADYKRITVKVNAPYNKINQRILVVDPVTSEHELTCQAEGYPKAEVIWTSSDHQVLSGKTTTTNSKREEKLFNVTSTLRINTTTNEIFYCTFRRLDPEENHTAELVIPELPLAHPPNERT

[8] = target: T1, human CD28 on cells (endogenous on …); experiment: flow cytometry, Jurkat/NFkB-Luc cells (endogenous CD28)
[9] = target: T2, human PD-L1 expressed on cells …; experiment: cell-based or functional assay

NFkB-luciferase MAX (RLU), Jurkat/NFkB-Luc + HEK293/hCD20/hPSMA [1] [RLU]	NFkB-luciferase MAX (RLU), Jurkat/NFkB-Luc + HEK293/hCD20/hPSMA + CD20×CD3 [1] [RLU]	NFkB-luciferase MAX (RLU), Jurkat/NFkB-Luc + HEK293/hCD20/hPSMA/hPD-L1 [1] [RLU]	NFkB-luciferase MAX (RLU), Jurkat/NFkB-Luc + HEK293/hCD20/hPSMA/hPD-L1 + CD20×CD3 [1] [RLU]	IL2 release MAX (RLU), CD4+ T cells + HEK293/hCD20/hPSMA [2] [RLU]	IL2 release MAX (RLU), CD4+ T cells + HEK293/hCD20/hPSMA + CD20×CD3 [2] [RLU]	IL2 release MAX (RLU), CD4+ T cells + HEK293/hCD20/hPSMA/hPD-L1 [2] [RLU]	IL2 release MAX (RLU), CD4+ T cells + HEK293/hCD20/hPSMA/hPD-L1 + CD20×CD3 [2] [RLU]	90 nM mAb Bind (RU) [4] [RU]	30 nM hPD-L1.mmH Bind (RU) [5] [RU]	Kd [5] [nM]	koff [5] [s⁻¹]	kon [5] [M⁻¹ s⁻¹]	t1/2 [5] [h]	EC50 [6] [nM]	Fold Change (max MFI over secondary antibody alone) [6] [fold]	Max gMFI [6] [gMFI]	% Blocking at 100 nM mAb [7] [%]	IC50 [7] [nM]	AP-1 luciferase EC50, WSU-DLCL2/hPD-L1 + Jurkat/AP1-Luc/hPD1 [9] [nM]	Binder	further results
11000	181000	11100	155000	4530	9080	3640	6960	-1.3	–	–	–	–	–	–	–	–	–	–	–	mAb9373 (antibody, V domains shown, Bivalent parental antibody; also called parental bivalent anti-PD-L1 antibody; PD-L1 bivalent control antibody) VH: QVQLVQSGTEVKKPGASVKVSCKASGYTFTAYYMHWVRQAPGQGLDWMGWISPNSGFTNYAQKFQGRVTMTRDTSINTFYMELSGLRSDDTAVYYCAREGSTHHNSFDPWGQGTLVTVSS VL: not shown	Fold Change (max MFI over secondary antibody alone) [3]: 5.2 fold
17200	444000	110000	2.32e+06	3870	25200	2690	144000	15.4	34.9	0.103	6.18e-05	600000	3.11	2.5	876	1.4e+06	97	1.2	0.183	REGN6192 (bispecific antibody, human IgG4 S228P, kappa, common light chain 1-39; also called PD-L1×CD28; anti-PD-L1 × anti-CD28 bispecific antibody) heavy 1: EVQLVESGGGLVQPGRSLRLSCAASGFTFDDYALHWVRQAPGKGLEWVSGISWTGGTIDYADSVKGRFTISRDNAKNSLYLQMSSLRTEDTAIYYCTRDIRGNWKYGGWFDPWGQGTLVTVSSASTKGPSVFPLAPCSRSTSESTAALGCLVKDYFPEPVTVSWNSGALTSGVHTFPAVLQSSGLYSLSSVVTVPSSSLGTKTYTCNVDHKPSNTKVDKRVESKYGPPCPPCPAPPVAGPSVFLFPPKPKDTLMISRTPEVTCVVVDVSQEDPEVQFNWYVDGVEVHNAKTKPREEQFNSTYRVVSVLTVLHQDWLNGKEYKCKVSNKGLPSSIEKTISKAKGQPREPQVYTLPPSQEEMTKNQVSLTCLVKGFYPSDIAVEWESNGQPENNYKTTPPVLDSDGSFFLYSRLTVDKSRWQEGNVFSCSVMHEALHNHYTQKSLSLSLGK heavy 2: EVQLVESGGGLVQPGGSLRLSCAASGFTFSTYAMTWVRQAPGKGLEWVSFISGSGDNTYYADSVKGRFTISRDNSKNTLYLQMNSLRADDSAIYHCAKDSGYCSSGGCSLYFYYGMDVWGQGTTVTVSSASTKGPSVFPLAPCSRSTSESTAALGCLVKDYFPEPVTVSWNSGALTSGVHTFPAVLQSSGLYSLSSVVTVPSSSLGTKTYTCNVDHKPSNTKVDKRVESKYGPPCPPCPAPPVAGPSVFLFPPKPKDTLMISRTPEVTCVVVDVSQEDPEVQFNWYVDGVEVHNAKTKPREEQFNSTYRVVSVLTVLHQDWLNGKEYKCKVSNKGLPSSIEKTISKAKGQPREPQVYTLPPSQEEMTKNQVSLTCLVKGFYPSDIAVEWESNGQPENNYKTTPPVLDSDGSFFLYSRLTVDKSRWQEGNVFSCSVMHEALHNRFTQKSLSLSPGK light: not shown	NFkB-luciferase EC50, Jurkat/NFkB-Luc + HEK293/hCD20/hPSMA/hPD-L1 + CD20×CD3 [1]: 0.243 nM; Fold Change (max MFI over secondary antibody alone) [8]: 24.1 fold; Max gMFI [8]: 10000 gMFI; AP-1 luciferase MAX (RLU), WSU-DLCL2/hPD-L1 + Jurkat/AP1-Luc/hPD1 [9]: 1.19e+06 RLU; IL2 release EC50, CD4+ T cells + HEK293/hCD20/hPSMA + CD20×CD3 [2]: 16.4 nM; IL2 release EC50, CD4+ T cells + HEK293/hCD20/hPSMA/hPD-L1 + CD20×CD3 [2]: 0.104 nM; Kd [4]: 13.2 nM; koff [4]: 0.000342 s⁻¹; kon [4]: 25900 M⁻¹ s⁻¹; t1/2 [4]: 0.563 h
14200	217000	19500	2.73e+06	4250	12600	2760	141000	21.6	44.2	0.116	6.37e-05	548000	3.02	1.3	847	1.3e+06	98	0.82	0.202	REGN6193 (bispecific antibody, human IgG4 S228P, kappa, common light chain 1-39; also called PD-L1×CD28; anti-PD-L1 × anti-CD28 bispecific antibody) heavy 1: EVQLVESGGGLVQPGRSLRLSCAASGFTFDDYALHWVRQAPGKGLEWVSGISWTGGTIDYADSVKGRFTISRDNAKNSLYLQMSSLRTEDTAIYYCTRDIRGNWKYGGWFDPWGQGTLVTVSSASTKGPSVFPLAPCSRSTSESTAALGCLVKDYFPEPVTVSWNSGALTSGVHTFPAVLQSSGLYSLSSVVTVPSSSLGTKTYTCNVDHKPSNTKVDKRVESKYGPPCPPCPAPPVAGPSVFLFPPKPKDTLMISRTPEVTCVVVDVSQEDPEVQFNWYVDGVEVHNAKTKPREEQFNSTYRVVSVLTVLHQDWLNGKEYKCKVSNKGLPSSIEKTISKAKGQPREPQVYTLPPSQEEMTKNQVSLTCLVKGFYPSDIAVEWESNGQPENNYKTTPPVLDSDGSFFLYSRLTVDKSRWQEGNVFSCSVMHEALHNHYTQKSLSLSLGK heavy 2: EVQLVESGGGLVQPGGSLRLSCAASGFTFSRNNMHWVRQAPGKGLEYVSGISSNGGRTYYADSVKGRFTISRDNSKNTLYLQMGGLRAADMAVYFCTRDDELLSFDYWGQGTLVTVSSASTKGPSVFPLAPCSRSTSESTAALGCLVKDYFPEPVTVSWNSGALTSGVHTFPAVLQSSGLYSLSSVVTVPSSSLGTKTYTCNVDHKPSNTKVDKRVESKYGPPCPPCPAPPVAGPSVFLFPPKPKDTLMISRTPEVTCVVVDVSQEDPEVQFNWYVDGVEVHNAKTKPREEQFNSTYRVVSVLTVLHQDWLNGKEYKCKVSNKGLPSSIEKTISKAKGQPREPQVYTLPPSQEEMTKNQVSLTCLVKGFYPSDIAVEWESNGQPENNYKTTPPVLDSDGSFFLYSRLTVDKSRWQEGNVFSCSVMHEALHNRFTQKSLSLSPGK light: not shown	NFkB-luciferase EC50, Jurkat/NFkB-Luc + HEK293/hCD20/hPSMA/hPD-L1 + CD20×CD3 [1]: 0.413 nM; Fold Change (max MFI over secondary antibody alone) [8]: 21.8 fold; Max gMFI [8]: 9200 gMFI; AP-1 luciferase MAX (RLU), WSU-DLCL2/hPD-L1 + Jurkat/AP1-Luc/hPD1 [9]: 1.49e+06 RLU; IL2 release EC50, CD4+ T cells + HEK293/hCD20/hPSMA/hPD-L1 + CD20×CD3 [2]: 0.144 nM; Kd [4]: 46.9 nM; koff [4]: 0.00168 s⁻¹; kon [4]: 35900 M⁻¹ s⁻¹; t1/2 [4]: 0.115 h
44400	180000	57100	165000	4360	8980	3680	10900	-0.9	112	0.13	7.42e-05	571000	2.59	0.73	401	620000	99	0.52	0.00651	mAb9364 (antibody, V domains shown, Bivalent parental antibody; also called parental bivalent anti-PD-L1 antibody; PD-L1 bivalent control antibody) VH: EVQLVESGGGLVQPGRSLRLSCAASGFTFDDYALHWVRQAPGKGLEWVSGISWTGGTIDYADSVKGRFTISRDNAKNSLYLQMSSLRTEDTAIYYCTRDIRGNWKYGGWFDPWGQGTLVTVSS VL: not shown	AP-1 luciferase MAX (RLU), WSU-DLCL2/hPD-L1 + Jurkat/AP1-Luc/hPD1 [9]: 1.04e+06 RLU; Fold Change (max MFI over secondary antibody alone) [3]: 4.7 fold
